Where two headings read alike, the source gives them in different places.
System: Rat Retina
Description: The following experiment was conducted in order to assess changes in gene expression induced in the retina after intraocular injection of α2 macroglobulin protein. 2 μg of α2 macroglobulin protein was intraocularly injected into the right eye of rats (n=3) and the left eye was used as a control. One rat was tested at Day 3, one rat was tested at Day 7 and one rat was tested at Day 14. Retinas were isolated and mRNA was collected. Samples from each of the rats were studied by gene microassays. Retinas were carefully dissected out to insure that only retinal mRNAs were prepared for gene microarray studies. Samples were obtained from control eyes.
Total RNA was isolated from retinal tissue using TRIZOL® (Life Technologies). RNA was then further purified using the RNAEASY® (QIAGEN®). The integrity of the RNA samples was assessed by running aliquots on RNA 6000 Nano LabChip (Agilent) using the 2100 bioanalyzer (Agilent).
Probe synthesis, hybridization and scanning were done according to Affymetrix protocol, as a service at the McGill University and Genome Quebec Innovation Centre. For the experiments shown, Rat U34 Genome Arrays (8,700 genes, Affymetrix) were used. Briefly, RNA samples were first converted to double stranded cDNA (T7-(dT)24 primer (Genset)). Then the cDNAs were purified and used to generate the biotinylated cRNA probes (Bioarray High Yield RNA transcript labeling kit (Enzo diagnostics)). An aliquot of the purified cRNA was analyzed on RNA 6000 Nano LabChip (Agilent) to verify the integrity and size distribution. Immediately after hybridization the chip was placed in the Affymetrix GeneChip Fluidics Station 400 (Affymetrix). In total, 10 low-stringency washes (63 SSPE, 0.01% Tween-20, 0.005% Antifoam) and 4 high-stringency washes (100 mM MES, 0.1 M NaCl, 0.01% Tween-20, 50 C) were performed (all reagents from Sigma). The array was then incubated with SAPE® (streptavidin/phycoerythrin stain, Molecular Probes), followed by 10 low stringency washes. The array was incubated with biotinylated anti-streptavidin antibody (Vector Laboratories) and washed again with 15 low stringency washes. Specifically bound probe was detected by placing the array in the Agilent GeneArray scanner 2500 (Affymetrix). The scanned images were analyzed using the Microarray Analysis Suite version 5.0 (Affymetrix).
The fold change was analyzed by […] data for the control eye from the data on the eye injected with α2 macroglobulin. A fold change of 2 or greater indicates upregulation. A fold of 0.5 to 2 indicates no change. A fold change of 0.5 or less indicates downregulation.

[1] = gene ADP-ribosylation factor guanine nucleotide-exchange factor 1 (1392282_at)
[2] = gene Bone morphogenetic protein receptor, type 1A (1390398_at)
[3] = gene CDNA clone IMAGE: 7321089 (1389986_at)
[4] = gene CREB binding protein (1385852_at)
[5] = gene Ewing sarcoma breakpoint region 1 (1378518_at)
[6] = gene Exosome component 8 (predicted) (1386936_at)
[7] = gene FERM domain containing 4B (1384681_at)
[8] = gene Fc receptor, IgG, low affinity IIb (1371079_at)
[9] = gene High density lipoprotein binding protein (1375309_at)
[10] = gene RT1 class II, locus Ba (1370822_at)
[11] = gene RT1 class II, locus Bb (1371033_at)
[12] = gene RT1 class II, locus Da (1370883_at)
[13] = gene RT1 class II, locus Db1 (1370383_s_at)
[14] = gene S100 calcium binding protein A11 (calizzarin) (1375170_at)
[15] = gene Similar to CG10084-PA (1394756_at)
[16] = gene Similar to NICE-3 (1397412_at)
[17] = gene Similar to expressed sequence AV312086 (predicted) (1390657_at)
[18] = gene Similar to hypothetical protein D630010C10 (1385108_at)
[19] = gene Thyroid hormone receptor interactor 12 (1380803_at)
[20] = gene Transcribed locus (1381100_at)
[21] = gene Transcribed locus (1382211_at)
[22] = gene Transcribed locus (1382368_at)
[23] = gene Transcribed locus (1382510_at)
[24] = gene Transcribed locus (1384014_at)
[25] = gene Transcribed locus (1385552_at)
[26] = gene Transcribed locus (1391757_at)
[27] = gene Transcribed locus (1392155_at)
[28] = gene Transcribed locus (1392675_at)
[29] = gene Transcribed locus (1395390_at)
[30] = gene Transcribed locus (1397883_at)
[31] = gene actin related protein 2/3 complex, subunit 1B (1386925_at)
[32] = gene argininosuccinate synthetase (1370964_at)
[33] = gene ash1 (absent, small, or homeotic)-like (Drosophila) (predicted) (1382862_at)
[34] = gene cold inducible RNA binding protein (1382809_at)
[35] = gene complement component 1, s subcomponent (1387893_at)
[36] = gene complement component 3 (1368000_at)
[37] = gene complement component 4a (1370892_at)

B1: α2m: α2 macroglobulin protein injected intraocularly into normal rat eyes (protein, UniProt P06238 28-1472, looked up)
Alpha-2-macroglobulin: SAPQKPIYMVMVPSLLHAGTPEKACFLFSHLNETVAVRVSLESVRGNQSLFTDLVVDKDLFHCTSFTVPQSSSDEVMFFTVQVKGATHEFRRRSTVLVKKKESLVFAQTDKPIYKPGQTVRFRVVSLDESFHPLNELIPLLYIQDPKNNRIAQWQNFNLEGGLKQLSFPLSSEPTQGSYKVVIRTESGRTVEHPFSVEEFVLPKFEVRVTVPETITILEEEMNVSVCGIYTYGKPVPGRVTVNICRKYSNPSNCFGEESVAFCEKLSQQLDGRGCFSQLVKTKSFQLKRQEYEMQLDVHAKIQEEGTGVEETGKGLTKITRTITKLSFVNVDSHFRQGIPFVGQVLLVDGRGTPIPYETIFIGADEANLYINTTTDKHGLARFSINTDDIMGTSLTVRAKYKDSNACYGFRWLTEENVEAWHTAYAVFSPSRSFLHLESLPDKLRCDQTLEVQAHYILNGEAMQELKELVFYYLMMAKGGIVRAGTHVLPLKQGQMRGHFSILISMETDLAPVARLVLYAILPNGEVVGDTAKYEIENCLANKVDLVFRPNSGLPATRALLSVMASPQSLCGLRAVDQSVLLMKPETELSASLIYDLLPVKDLTGFPQGADQREEDTNGCVKQNDTYINGILYSPVQNTNEEDMYGFLKDMGLKVFTNSNIRKPKVCERLRDNKGIPAAYHLVSQSHMDAFLESSESPTETRRSYFPETWIWDLVVVDSAGVAEVEVTVPDTITEWKAGAFCLSNDTGLGLSPVVQFQAFQPFFVELTMPYSVIRGEAFTLKATVLNYLPTCIRVAVQLEASPDFLAAPEEKEQRSHCICMNQRHTASWAVIPKSLGNVNFTVSAEALNSKELCGNEVPVVPEQGKKDTIIKSLLVEPEGLENEVTFNSLLCPMGAEVSELIALKLPSDVVEESARASVTVLGDILGSAMQNTQDLLKMPYGCGEQNMVLFAPNIYVLDYLNETQQLTQEIKTKAIAYLNTGYQRQLNYKHRDGSYSTFGDKPGRNHANTWLTAFVLKSFAQARKYIFIDEVHITQALLWLSQQQKDNGCFRSSGSLLNNAMKGGVEDEVTLSAYITIALLEMSLPVTHPVVRNALFCLDTAWKSARGGAGGSHVYTKALLAYAFALAGNQDTKKEILKSLDEEAVKEEDSVHWTRPQKPSVSVALWYQPQAPSAEVEMTAYVLLAYLTTEPAPTQEDLTAAMLIVKWLTKQQNSHGGFSSTQDTVVALHALSKYGSATFTRAKKAAQVTIHSSGTFSTKFQVNNNNQLLLQRVTLPTVPGDYTVKVTGEGCVYLQTSLKYSVLPREEEFPFTVVVQTLPGTCEDPKAHTSFQISLNISYTGSRSESNMAIADVKMVSGFIPLKPTVKMLERSVHVSRTEVSNNHVLIYLDKVSNQTVNLSFTVQQDIPIRDLKPAVVKVYDYYEKDEFAVAKYSAPCSTDYGNA
Fold Change (α2m vs normal) Day 3 [1]: 0.5 | Fold Change (α2m vs normal) Day 7 [1]: 0.3 | Fold Change (α2m vs normal) Day 3 [2]: 0.4 | Fold Change (α2m vs normal) Day 7 [2]: 0.2 | Fold Change (α2m vs normal) Day 14 [2]: 2.6 | Fold Change (α2m vs normal) Day 3 (gene CD74 antigen (1367679_at)): 10.1 | Fold Change (α2m vs normal) Day 7 (gene CD74 antigen (1367679_at)): 6.5 | Fold Change (α2m vs normal) Day 3 [3]: 0.5 | Fold Change (α2m vs normal) Day 7 [3]: 0.3 | Fold Change (α2m vs normal) Day 14 [3]: 2.9 | Fold Change (α2m vs normal) Day 3 [4]: 0.5 | Fold Change (α2m vs normal) Day 7 [4]: 0.4 | Fold Change (α2m vs normal) Day 3 [5]: 0.4 | Fold Change (α2m vs normal) Day 7 [5]: 0.1 | Fold Change (α2m vs normal) Day 3 [6]: 0.4 | Fold Change (α2m vs normal) Day 7 [6]: 4.3 | Fold Change (α2m vs normal) Day 14 [6]: 2.4 | Fold Change (α2m vs normal) Day 3 [7]: 0.5 | Fold Change (α2m vs normal) Day 7 [7]: 0.2 | Fold Change (α2m vs normal) Day 14 [7]: 2.3 | Fold Change (α2m vs normal) Day 3 [8]: 9.4 | Fold Change (α2m vs normal) Day 7 [8]: 2.1 | Fold Change (α2m vs normal) Day 3 [9]: 0.5 | Fold Change (α2m vs normal) Day 7 [9]: 0.5 | Fold Change (α2m vs normal) Day 3 (gene LOC361776 (1373010_at)): 20.1 | Fold Change (α2m vs normal) Day 7 (gene LOC361776 (1373010_at)): 0.5 | Fold Change (α2m vs normal) Day 3 [10]: 8.3 | Fold Change (α2m vs normal) Day 7 [10]: 4.5 | Fold Change (α2m vs normal) Day 3 [11]: 6.8 | Fold Change (α2m vs normal) Day 7 [11]: 5.2 | Fold Change (α2m vs normal) Day 3 [12]: 16.1 | Fold Change (α2m vs normal) Day 7 [12]: 11.3 | Fold Change (α2m vs normal) Day 3 [13]: 4.9 | Fold Change (α2m vs normal) Day 7 [13]: 3.5 | Fold Change (α2m vs normal) Day 3 [14]: 2.0 | Fold Change (α2m vs normal) Day 7 [14]: 4.5 | Fold Change (α2m vs normal) Day 3 [15]: 0.5 | Fold Change (α2m vs normal) Day 7 [15]: 0.3 | Fold Change (α2m vs normal) Day 14 [15]: 2.4 | Fold Change (α2m vs normal) Day 3 [16]: 0.5 | Fold Change (α2m vs normal) Day 7 [16]: 0.4 | Fold Change (α2m vs normal) Day 14 [16]: 2.0 | Fold Change (α2m vs normal) Day 3 [17]: 0.4 | Fold Change (α2m vs normal) Day 7 [17]: 0.3 | Fold Change (α2m vs normal) Day 3 [18]: 0.4 | Fold Change (α2m vs normal) Day 7 [18]: 0.2 | Fold Change (α2m vs normal) Day 3 [19]: 0.3 | Fold Change (α2m vs normal) Day 7 [19]: 0.4 | Fold Change (α2m vs normal) Day 3 [20]: 0.4 | Fold Change (α2m vs normal) Day 7 [20]: 0.3 | Fold Change (α2m vs normal) Day 14 [20]: 5.4 | Fold Change (α2m vs normal) Day 3 [21]: 0.3 | Fold Change (α2m vs normal) Day 7 [21]: 4.2 | Fold Change (α2m vs normal) Day 3 [22]: 0.4 | Fold Change (α2m vs normal) Day 7 [22]: 0.2 | Fold Change (α2m vs normal) Day 14 [22]: 2.7 | Fold Change (α2m vs normal) Day 3 [23]: 0.4 | Fold Change (α2m vs normal) Day 7 [23]: 0.3 | Fold Change (α2m vs normal) Day 3 [24]: 0.5 | Fold Change (α2m vs normal) Day 7 [24]: 4.2 | Fold Change (α2m vs normal) Day 14 [24]: 2.0 | Fold Change (α2m vs normal) Day 3 [25]: 0.5 | Fold Change (α2m vs normal) Day 7 [25]: 0.3 | Fold Change (α2m vs normal) Day 3 [26]: 0.5 | Fold Change (α2m vs normal) Day 7 [26]: 0.2 | Fold Change (α2m vs normal) Day 14 [26]: 2.0 | Fold Change (α2m vs normal) Day 3 [27]: 2.4 | Fold Change (α2m vs normal) Day 7 [27]: 16.6 | Fold Change (α2m vs normal) Day 3 [28]: 0.4 | Fold Change (α2m vs normal) Day 7 [28]: 0.3 | Fold Change (α2m vs normal) Day 3 [29]: 0.4 | Fold Change (α2m vs normal) Day 7 [29]: 4.1 | Fold Change (α2m vs normal) Day 3 [30]: 2.4 | Fold Change (α2m vs normal) Day 7 [30]: 17.0 | Fold Change (α2m vs normal) Day 3 [31]: 2.7 | Fold Change (α2m vs normal) Day 7 [31]: 2.0 | Fold Change (α2m vs normal) Day 3 [32]: 0.4 | Fold Change (α2m vs normal) Day 7 [32]: 2.4 | Fold Change (α2m vs normal) Day 3 [33]: 0.5 | Fold Change (α2m vs normal) Day 7 [33]: 0.2 | Fold Change (α2m vs normal) Day 3 (gene cadherin 1 (1386947_at)): 0.4 | Fold Change (α2m vs normal) Day 7 (gene cadherin 1 (1386947_at)): 9.6 | Fold Change (α2m vs normal) Day 14 (gene cadherin 1 (1386947_at)): 2.4 | Fold Change (α2m vs normal) Day 3 [34]: 0.4 | Fold Change (α2m vs normal) Day 7 [34]: 0.1 | Fold Change (α2m vs normal) Day 14 [34]: 2.2 | Fold Change (α2m vs normal) Day 3 [35]: 6.0 | Fold Change (α2m vs normal) Day 7 [35]: 3.6 | Fold Change (α2m vs normal) Day 3 [36]: 8.4 | Fold Change (α2m vs normal) Day 7 [36]: 2.1 | Fold Change (α2m vs normal) Day 3 [37]: 2.2 | Fold Change (α2m vs normal) Day 7 [37]: 2.3 | Fold Change (α2m vs normal) Day 3 (gene complement factor B (1389470_at)): 3.9

— US8563520B2, “Treatment of ocular disease with inhibitors of alpha2 macroglobulin protein” (McGill University, priority 2005, dated 2013)
